B1: Tumor necrosis factor alpha-induced protein 3 (Homo sapiens), P21580 (parent)
chain: MAEQVLPQALYLSNMRKAVKIRERTPEDIFKPTNGIIHHFKTMHRYTLEMFRTCQFCPQFREIIHKALIDRNIQATLESQKKLNWCREVRKLVALKTNGDGNCLMHATSQYMWGVQDTDLVLRKALFSTLKETDTRNFKFRWQLESLKSQEFVETGLCYDTRNWNDEWDNLIKMASTDTPMARSGLQYNSLEEIHIFVLCNILRRPIIVISDKMLRSLESGSNFAPLKVGGIYLPLHWPAQECYRYPIVLGYDSHHFVPLVTLKDSGPEIRAVPLVNRDRGRFEDLKVHFLTDPENEMKEKLLKEYLMVIEIPVQGWDHGTTHLINAAKLDEANLPKEINLVDDYFELVQHEYKKWQENSEQGRREGHAQNPMEPSVPQLSLMDVKCETPNCPFFMSVNTQPLCHECSERRQKNQNKLPKLNSKPGPEGLPGMALGASRGEAYEPLAWNPEESTGGPHSAPPTAPSPFLFSETTAMKCRSPGCPFTLNVQHNGFCERCHNARQLHASHAPDHTRHLDPGKCQACLQDVTRTFNGICSTCFKRTTAEASSSLSTSLPPSCHQRSKSDPSRLVRSPSPHSCHRAGNDAPAGCLSQAARTPGDRTGTSKCRKAGCVYFGTPENKGFCTLCFIEYRENKHFAAASGKVSPTASRFQNTIPCLGRECGTLGSTMFEGYCQKCFIEAQNQRFHEAKRTEEQLRSSQRRDVPRTTQSTSRPKCARASCKNILACRSEELCMECQHPNQRMGPGAHRGEPAPEDPPKQRCRAPACDHFGNAKCNGYCNECFQFKQMYG

Variants of: B1
Conditions: with ATG16L1, Q676U5-1
Chain of ATG16L1, Q676U5-1 (Q676U5 whole entry): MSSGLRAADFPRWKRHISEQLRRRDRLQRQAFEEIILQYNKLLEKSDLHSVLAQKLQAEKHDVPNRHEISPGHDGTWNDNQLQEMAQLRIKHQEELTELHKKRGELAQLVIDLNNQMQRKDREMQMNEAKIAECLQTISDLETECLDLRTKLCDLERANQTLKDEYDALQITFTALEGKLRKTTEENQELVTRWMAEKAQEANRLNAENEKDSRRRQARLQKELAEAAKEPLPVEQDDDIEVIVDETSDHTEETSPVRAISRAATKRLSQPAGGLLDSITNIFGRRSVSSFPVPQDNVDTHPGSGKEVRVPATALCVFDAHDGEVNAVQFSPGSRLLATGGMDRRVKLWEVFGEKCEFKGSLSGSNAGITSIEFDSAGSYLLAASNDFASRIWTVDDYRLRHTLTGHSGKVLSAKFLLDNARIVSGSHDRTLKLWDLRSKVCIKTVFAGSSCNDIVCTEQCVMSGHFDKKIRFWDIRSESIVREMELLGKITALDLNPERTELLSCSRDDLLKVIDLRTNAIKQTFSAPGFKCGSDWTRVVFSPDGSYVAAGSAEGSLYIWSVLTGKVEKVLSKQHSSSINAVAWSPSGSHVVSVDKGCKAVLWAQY

Effect of a mutation on the interaction, with no effect:
A125V
F127A;L130A
F127C
W168A;L171A
Y188A;L191A
F224A;L227A
Y233A;L236A
Y246A;V249A
F257A;L260A
